± gives the uncertainty stated by the source.
Assay: amyloid nucleation score (Sup35N fusion, yeast selection) (log enrichment); library NNK3; higher = more nucleation; inactive = no reads after selection
Procedure, shortened: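 Using DiMSum, nucleation scores were taken as the log enrichment of output over input reads, centred on the mode score of non-aggregating sequences. The input and output reads came from Illumina sequencing of plasmid inserts, with sequences under 100 input reads excluded. The yeast were psi-negative, expressed Sup35N fused to peptides of 20 random codons, were induced with 100 μM copper sulfate for 24 hours, and were grown 7 days at 30°C on medium lacking adenine and uracil.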

Substance	amyloid nucleation score
VGSCIVKMIDFASTKGRGLI	inactive
GVSISQPTILQWSTVRTSID	0.04 ± 0.85
MAEPTL	inactive
LLRGLAIGKKDYIYSLLLLH	-0.619 ± 1.4
CSIILWALPEFNLLDFLPAD	inactive
NAFICGSRYQVVKDSDDHCM	inactive
LVFPVKKSLVCEGV	inactive
TLSLPLMTRWSLYLCSDWAS	inactive
GIWDWVLAIMLRFVTKPS	inactive
IMFSVRRLKSILSRVAWYNT	inactive
SLWMFCYSDSYRCKDNFLRN	inactive
NSGYVYGIQCNVWVLAFMGF	2.7 ± 0.068
RVVLTVFMFLIQSENACKLH	inactive
IGMTRGMGLVVFYSRYMWDD	inactive
YPLDTVGFWEESKLFVGRGG	inactive
KSSTNMEMRMSHLGLLIGEV	inactive
QTSSTNPMVASKPQAQRACK	inactive
AKMNYKLWRDVA	inactive
IRAEGQKIYDLPSFCVLIPR	inactive
RSHECGGSLMFVKLGCG	inactive
MLCAPVANLYCKHPWDS	inactive
YGEAAYRDRS	inactive
LMLMVCVN	-0.601 ± 0.74

Substance	amyloid nucleation score
LMPRTEI	inactive
WHMWMESKLWQPQRATSVFP	inactive
NDVPLDRQLVDGYIASARFG	inactive
VFYMRSETKLFL	-0.391 ± 0.8
ICEQKEFPYVEQWLD	inactive
SALPQH	inactive
DSIRLLLALPH	inactive
IHWGRAGATEAAST	inactive
LSVGVSRCLNPLLTIGSGRE	1.28 ± 0.096
AEWFAKLLASTMGLIFERRW	inactive
DFDAC	0.021 ± 0.52
MMNVMFD	0.661 ± 0.23
YICNY	inactive
SLKSNTVCDNL	inactive
ILMRTGFILCATST	inactive
FIGDVLGSINGKCHLEYLYF	inactive
RVPYR	inactive
PDAHTKMT	0.603 ± 0.27
AVNCESSCCECYGTFMDKPV	inactive
GSVVTQGCGNLTLEAA	inactive
DSVRASSLLWMFWCIVEFHG	inactive
IVYRVSVFSWLVMDPDDK	inactive
VLFNSPTRGVHLLQTGSRQS	inactive

Substance	amyloid nucleation score
EVKSDVMKLFNCVFSCPLTF	2.38 ± 0.073
SLVGGICVRHREDVDTQKFK	inactive
RYYLGMHFINCMRVRVP	inactive
SGMTGCTFRYGSRIQF	inactive
YMGCMTVW	inactive
IIMSQMVYIVRDIHFVCWVI	inactive
KTKGICSSMLVFC	inactive
RAEMMSYTLVQIIGYISIVE	inactive
HSSGDTWLGRV	inactive
TWRNLILRFGCGGFSKTTFK	inactive
DFSTDTHWKVWW	0.566 ± 0.43
ALCCVRPFGNEDKREVMYSN	0.604 ± 0.24
FQCFFRVLVV	inactive
RRKLRGALTVEMVFSPVYRR	inactive
MSPPCFNRMSYIMLPWFVML	inactive
WRFFDVDNNMSTHVLKQLRC	inactive
IKSHVAIDSVPER	inactive
FLGSYSLTDRIRWVTFPLFQ	inactive
RLGFF	inactive
SHYLLMFLVSDTLV	inactive
ESLAWS	inactive
RIPSGFTL	inactive
YFSAIFFDSLYMLYGSNRAV	0.356 ± 0.24

Substance	amyloid nucleation score
LRAKTRHSVLNCDRIVEPGG	1.49 ± 0.13
AVDLNVTLQWVCSRGRRWVF	0.051 ± 0.3
HLWVSVVNSTESSMTMA	inactive
FLLIIHHST	-0.126 ± 0.6
VTEYKFKVFLPMRKRSVIMV	inactive
SCIIWKSWQV	1.14 ± 0.095
PKQSIDCCHNWGDGNCFIVV	inactive
FVERMVLVLV	inactive
CKRNKDGKWRRKTWRLVQFY	-1 ± 1.2
KFSMMYLRYFVWFLRLIMAS	inactive
SYRYFGGSDYRLCGGIWMLA	inactive
IIPRIALPVCFVPYGLRRSS	inactive
ICPTWELNIRP	inactive
CTYLAVVTMMDEELWGIRWN	inactive
ISRAVRILVVFDEVWMCSDG	inactive
YLFRNLRGRAIFVNKIIGQR	inactive
GFGFRAVMPMLYFEYYGQR	0.793 ± 0.12
VGHERTVSLQHCGRRLRWCW	inactive
WCPSSSM	inactive
DCMNGLVCFFMMCRGSLIRD	inactive
IESKLDAYTLCVGSSNWLWM	inactive
IAFTNLVKVCGLTGYA	inactive
MIDIKCNERAFSEYRFWCRW	0.141 ± 0.42

Substance	amyloid nucleation score
RVPACAYACLAYGGYDDMAG	inactive
RQNPGLGFLNFFLMV	0.258 ± 0.35
YSCVVL	inactive
RVGRSR	-0.176 ± 1.4
AFVDAQQVNGLYGWYDSKCD	inactive
SRVLDGVWRAVLSCFQGSSI	0.867 ± 0.12
YLLRHILSIWKGWDWGTSQ	inactive
FFSFTISMAWKGQVTELKCQ	inactive
VLKSIGV	inactive
ANSWSMLHVECFYML	2.44 ± 0.058
SFLTDMPKTKVYCAMNLPMI	-0.121 ± 0.66
CCVDPLAELLICMTALIASR	inactive
RFWKTTPNGQIRVSSVMRCM	inactive
KICGNRPGVSRYLVGLDVMC	inactive
IHMPHLGIGSKKRVSVRGDA	inactive
RCFIDLCFLDIIISFRYY	inactive
NQQWISTRVVLKAPAFERRT	inactive
FTLARAMPLGYSQGIMKSRG	inactive
KCAEL	inactive
YFYIPGH	inactive
RKGHDVVAVYWADLHSSGIV	inactive
SSNLDTTVCFPVCSAPELEG	inactive
NSNCYPLVI	inactive

Substance	amyloid nucleation score
GVEMHVFWDLA	inactive
WFGKPFYTYSKSSWRMLYQL	inactive
SNGLATLSLSWCNCIKGGSL	2.9 ± 0.052
CHGCMRLLSDGLKDEWYMIF	inactive
NGLPVLLEEDLS	inactive
FELVIYQIVRIIVRSLADIS	inactive
QLALPHKPHWGNWL	inactive
GNSASLEEVVLMEEGGVLCA	inactive
YLLCGYRGATFRKHEVWGEG	-0.059 ± 0.78
GYYFWQWLRIIL	inactive
CDSTSITWGHVLWFYINYWM	inactive
ATELYLGVICNKMRW	inactive
SILTMLPKFGFVESLLECEG	inactive
LTKYRGPQDVRNAFSCSNIM	inactive
LFGFQNDCYMDNRYW	inactive
IMVKVW	inactive
RMFNSYNQFLLVAMLPYPLR	2.62 ± 0.071
LSDWKFDMCYCFFVLCQELW	inactive
FRRLHQGLWKMYS	inactive
GLCPYSIQFFGGRSDHNW	1.24 ± 0.15
EPGSANRSSESNCRVGGTDD	inactive
TCNIFLGAPHGAVGRCCRAR	1.82 ± 0.11
DTSGSCSILTRSRNMSFWRR	inactive

Substance	amyloid nucleation score
CCYATSLYINDDATIIVNLM	2.74 ± 0.072
SVYGKFILAAVAGLRFGGLK	inactive
GYFFGTTKKCETFTCMRWQV	inactive
RKYCYGMSLFTDMTMLVRRK	inactive
NSFDCVRDWLPLIF	inactive
TPCAKTIELHWCVVERRSSY	inactive
PSMSADGADLSGCQLIMVLS	inactive
PKFYH	inactive
FSSRDWNYSSRMVKIRNGRF	inactive
NKFFDI	inactive
MRWCNQDQL	inactive
YYFDDVTLKASTRDRVLARG	inactive
YRPGW	inactive
VNHVIQNLVSNRSTWGICCT	inactive
RPYGSEVVIFMSVSRKPPPA	0.661 ± 0.14
GAMCIRWEG	inactive
NRTFNYNIQNVGSSWEL	0.233 ± 0.19
LMNEKNPSQDNRFRIVRALS	inactive
IRRLQINRAKHAILLLHYNW	inactive
FPVSMENFKYA	inactive
LIRVGKDRVVSMEEVRCLLR	inactive
KSNVLP	inactive

From the supplement of paper PMC12042874
